B1: M1644 (antibody, V domains shown)
VH: EVQLVQSGAEVKKPGESLRISCKGSGYTFITYWIEWVRQMPGKGLEWMGDILPGSGSTNYSPSFQGHVTISADKSISTAYLQWSSLKASDTAMYYCARSGYYGNSGFAYWGQGTLVTVSS
VL: DIVMTQTPLSLPVTPGEPASISCKSSQSLLFRPTQKNYLTWYLQKPGQSPQLLIYWASTRESGVPDRFSGSGSGTDFTLKISRVEAEDVGVYYCQNDDSYPLTFGQGTKLEIK
notes: complete MAb; FR4 is its own entry; also called H22/L225
B2: M1643 (antibody, V domains shown)
VH: B1 VH
VL: B1 VL with F31Y, R32V, P33Y, T34G, D98F, Y100W
notes: complete MAb; FR4 is its own entry; also called H22/L162
B3: M1645 (antibody, V domains shown)
VH: B1 VH
VL: B1 VL with F31Y, R32T, P33S, T34N, S99Y, Y100W
notes: complete MAb; FR4 is its own entry; also called H22/L283
B4: M1648 (antibody, V domains shown)
VH: B1 VH with I30A, T31P, S55T, S57F, N59T
VL: B1 VL with F31P, R32S, P33W, T34N, K36S, D98F, S99T
notes: complete MAb; FR4 is its own entry; also called H171/L327
B5: M1647 (antibody, V domains shown)
VH: B1 VH with I30A, T31P, S55T, S57F, N59T
VL: B1 VL with F31Y, R32S, P33G, T34N, K36R, E61S, S99T, L102M
notes: complete MAb; FR4 is its own entry; also called H171/L320
B6: M1642 (antibody, V domains shown)
VH: B1 VH
VL: B1 VL with F31T, R32S, P33Y, T34N, K36R, D98L, S99T
notes: complete MAb; FR4 is its own entry; also called H22/L369
B7: M1650 (antibody, V domains shown)
VH: B1 VH with I30A, T31P, S55T, S57F, N59T
VL: B1 VL with F31T, R32S, P33Y, T34N, K36R, D98L, S99T
notes: complete MAb; FR4 is its own entry; also called H171/L369
B8: M23 (antibody, V domains shown)
VH: QVQLVQSGAEVKKPGASVKVSCKASGYTFITYWIEWVRQAPGQRLEWMGDILPGSGSTNYNENFKGRVTITRDTSASTAYMELSSLRSEDTAVYYCARSGYYGNSGFAYWGQGTLVTVSS
VL: DIVMTQSPDSLAVSLGERATINCKSSQSLLSSGNQKNYLTWYQQKPGQPPKLLIYWASTRESGVPDRFSGSGSGTDFTLTISSLQAEDVAVYYCQNDYTYPLTFGQGTKLEIK
notes: complete MAb; FR4 is its own entry; also called H17/L2
B9: M72 (antibody, V domains shown)
VH: EVQLVQSGAEVKKPGATVKISCKVSGYTFITYWIEWVQQAPGKGLEWMGDILPGSGSTNYAEKFQGRVTITADTSTDTAYMELSSLRSEDTAVYYCATSGYYGNSGFAYWGQGTLVTVSS
VL: B8 VL
notes: complete MAb; FR4 is its own entry; also called H24/L2
B10: M65 (antibody, V domains shown)
VH: B8 VH with A16S, R44G, N61A, E62Q, N63K, K65Q, R72A, T74E, A76T
VL: B8 VL
notes: complete MAb; FR4 is its own entry; also called H23/L2
B11: M44 (antibody, V domains shown)
VH: B8 VH with R44G, I70M, R72T, A76T, S84R, E89D
VL: B8 VL
notes: complete MAb; FR4 is its own entry; also called H20/L2
B12: M63 (antibody, V domains shown)
VH: B1 VH
VL: DIVMTQTPLSSPVTLGQPASISCKSSQSLLSSGNQKNYLTWLQQRPGQPPRLLIYWASTRESGVPDRFSGSGAGTDFTLKISRVEAEDVGVYYCQNDYTYPLTFGQGTKLEIK
notes: complete MAb; FR4 is its own entry; also called H22/L7
B13: M49 (antibody, V domains shown)
VH: B8 VH with R44G, I70M, R72T, A76T, S84R, E89D
VL: B12 VL
notes: complete MAb; FR4 is its own entry; also called H20/L7
B14: M74 (antibody, V domains shown)
VH: B9 VH
VL: B1 VL with T7S, F31S, R32S, P33G, T34N, D98Y, S99T
notes: complete MAb; FR4 is its own entry; also called H24/L4
B15: M77 (antibody, V domains shown)
VH: B9 VH
VL: B12 VL
notes: complete MAb; FR4 is its own entry; also called H24/L7
B16: M14 (antibody, V domains shown)
VH: B1 VH with S61N, P62E, S63N, Q65K
VL: B12 VL
notes: complete MAb; FR4 is its own entry; also called H15/L7
B17: M75 (antibody, V domains shown)
VH: B9 VH
VL: B12 VL with S11L, P12S, L15P, L42Y, Q43L, R45K, R51Q, A73S
notes: complete MAb; FR4 is its own entry; also called H24/L5
B18: M70 (antibody, V domains shown)
VH: B8 VH with A16S, R44G, N61A, E62Q, N63K, K65Q, R72A, T74E, A76T
VL: B12 VL
notes: complete MAb; FR4 is its own entry; also called H23/L7
B19: M73 (antibody, V domains shown)
VH: B9 VH
VL: B1 VL with F31S, R32S, P33G, T34N, D98Y, S99T
notes: complete MAb; FR4 is its own entry; also called H24/L3
B20: M21 (antibody, V domains shown)
VH: B8 VH with R44G, I70M, A76T, A79V
VL: B12 VL
notes: complete MAb; FR4 is its own entry; also called H16/L7
B21: M38 (antibody, V domains shown)
VH: B8 VH with A16S, R44G, R72A, T74E, A76T
VL: B1 VL with F31S, R32S, P33G, T34N, D98Y, S99T
notes: complete MAb; FR4 is its own entry; also called H19/L3
B22: M28 (antibody, V domains shown)
VH: B8 VH
VL: B12 VL
notes: complete MAb; FR4 is its own entry; also called H17/L7
B23: M40 (antibody, V domains shown)
VH: B8 VH with A16S, R44G, R72A, T74E, A76T
VL: B12 VL with S11L, P12S, L15P, L42Y, Q43L, R45K, R51Q, A73S
notes: complete MAb; FR4 is its own entry; also called H19/L5
B24: M18 (antibody, V domains shown)
VH: B8 VH with R44G, I70M, A76T, A79V
VL: B1 VL with T7S, F31S, R32S, P33G, T34N, D98Y, S99T
notes: complete MAb; FR4 is its own entry; also called H16/L4
B25: M67 (antibody, V domains shown)
VH: B8 VH with A16S, R44G, N61A, E62Q, N63K, K65Q, R72A, T74E, A76T
VL: B1 VL with T7S, F31S, R32S, P33G, T34N, D98Y, S99T
notes: complete MAb; FR4 is its own entry; also called H23/L4
B26: M25 (antibody, V domains shown)
VH: B8 VH
VL: B1 VL with T7S, F31S, R32S, P33G, T34N, D98Y, S99T
notes: complete MAb; FR4 is its own entry; also called H17/L4
B27: M17 (antibody, V domains shown)
VH: B8 VH with R44G, I70M, A76T, A79V
VL: B1 VL with F31S, R32S, P33G, T34N, D98Y, S99T
notes: complete MAb; FR4 is its own entry; also called H16/L3
B28: M24 (antibody, V domains shown)
VH: B8 VH
VL: B1 VL with F31S, R32S, P33G, T34N, D98Y, S99T
notes: complete MAb; FR4 is its own entry; also called H17/L3
B29: M47 (antibody, V domains shown)
VH: B8 VH with R44G, I70M, R72T, A76T, S84R, E89D
VL: B12 VL with S11L, P12S, L15P, L42Y, Q43L, R45K, R51Q, A73S
notes: complete MAb; FR4 is its own entry; also called H20/L5
B30: M39 (antibody, V domains shown)
VH: B8 VH with A16S, R44G, R72A, T74E, A76T
VL: B1 VL with T7S, F31S, R32S, P33G, T34N, D98Y, S99T
notes: complete MAb; FR4 is its own entry; also called H19/L4
B31: M66 (antibody, V domains shown)
VH: B8 VH with A16S, R44G, N61A, E62Q, N63K, K65Q, R72A, T74E, A76T
VL: B1 VL with F31S, R32S, P33G, T34N, D98Y, S99T
notes: complete MAb; FR4 is its own entry; also called H23/L3
B32: murine antibody 10H10 (antibody, V domains shown)
VH: QVHLQQSGAELMKPGASVKISCKASGYTFITYWIEWVKQRPGHGLEWIGDILPGSGSTNYNENFKGKATFTADSSSNTAYMQLSSLTSEDSAVYYCARSGYYGNSGFAYWGQGTLVTVSA
VL: DIVMTQSPSSLTVTAGEKVTMSCKSSQSLLSSGNQKNYLTWYQQIPGQPPKLLIYWASTRESGVPDRFTGSGSGTDFTLTINSVQAEDLAVYYCQNDYTYPLTFGAGTKLELK

Numbering of substitutions follows the chain as printed.

One assay has as its target T1, recombinant extracellular domain (ECD) of human TF, amino acid 1-219 of the mature chain, C-terminal His6-tag (human, UniProt P13726 33-251).
T1 construct: expressed in a mammalian system; used for ELISA and Biacore; biotinylated by NHS-ester for the Fab ELISA; also called His6-TF-ECD1-219; HumanTF1-219
As to the kind of experiment: Biacore.
In the case of B1, the Kd worked out at 0.12 nM. Same read-out and setting: in the case of B2 it was 0.18 nM; in that of B3, 0.08 nM; in that of B4, 0.73 nM. In the case of B5, the Kd is 0.1 nM. Same read-out and setting: to B6 belongs 0.95 nM. In the case of B7, the Kd was found to be 0.19 nM.

The target in another assay is T1, recombinant extracellular domain (ECD) …. As to the kind of experiment: direct ELISA, 50 ng/ml.
For the molecule B8, the binding result is on record as “binds”. On the same count and under the same terms, to B9 belongs “binds”; to B10, “binds”; to B11, “binds”. Still for that read-out and setting: to B12 belongs “binds”; to B13, “binds”; to B14, “binds”.

For B15, the binding result is reported as “binds”. The same measure, in the same setting: to B16 belongs “binds”. On the same count and under the same terms, in the case of B17 it was “binds”. Regarding B18, the binding result is recorded as “binds”.

As to B19, the binding result is reported as “binds”. With B20, the binding result is recorded as “binds”. With B21, the binding result was “binds”. Regarding B22, the binding result was “binds”. Regarding B23, the binding result is on record as “binds”.

With B24, the binding result was “binds”. Still for that read-out and setting: in the case of B25 it was “binds”; in that of B26, “binds”; in that of B27, “binds”. On to B28, for which the binding result is “binds”. Same read-out and setting: in the case of B29 it was “binds”; in that of B30, “binds”; in that of B31, “binds”.

For the next assay, the target named is Innovin, lyophilized recombinant human tissue factor combined with phospholipids (human, UniProt P13726 33-295, limits assumed). As to the kind of experiment: cell-based or functional assay.
Consider B32, for which the “T½ Max (seconds), coagulation of human plasma” value (“T½ Max (seconds), coagulation” below) was 191 s. With B1, the “T½ Max (seconds), coagulation” value amounted to 150 s.

As for B2, the “T½ Max (seconds), coagulation” value is 148 s.

Regarding B3, the “T½ Max (seconds), coagulation” value is 154 s. As for B4, the “T½ Max (seconds), coagulation” value is 161 s.

As to B5, the “T½ Max (seconds), coagulation” value worked out at 160 s. For B6, the “T½ Max (seconds), coagulation” value was 166 s.

For the molecule B7, the “T½ Max (seconds), coagulation” value is 150 s.

The next assay deals with endogenous human tissue factor on MDA-MB-231 breast cancer cells (human, UniProt P13726 33-295). As to the kind of experiment: cell-based or functional assay.
For the molecule B32, the “% IL-8 Inhibition” value worked out at 93.9%.
